The results in this text go back to article PMC9045721, “Cryo-EM structure of the EBV ribonucleotide reductase BORF2 and mechanism of APOBEC3B inhibition” (Science Advances, 2022).

Where a chain is given by its changes, count along the chain named. Names and notes keep the numbering of the source.

The labels stand for the following.
B1: MBP-BORF2 (1 to 826) (enzyme)
chain: MATTSHVEHELLSKLIDELKVKANSDPEADVLAGRLLHRLKAESVTHTVAEYLEVFSDKFYDEEFFQMHRDELETRVSAFAQSPAYERIVSSGYLSALRYYDTYLYVGRSGKQESVQHFYMRLAGFCASTTCLYAGLRAALQRARPEIESDMEVFDYYFEHLTSQTVCCSTPFMRFAGVENSTLASCILTTPDLSSEWDVTQALYRHLGRYLFQRAGVGVGVTGAGQDGKHISLLMRMINSHVEYHNYGCKRPVSVAAYMEPWHSQIFKFLETKLPENHERCPGIFTGLFVPELFFKLFRDTPWSDWYLFDPKDAGDLERLYGEEFEREYYRLVTAGKFCGRVSIKSLMFSIVNCAVKAGSPFILLKEACNAHFWRDLQGEAMNAANLCAEVLQPSRKSVATCNLANICLPRCLVNAPLAVRAQRADTQGDELLLALPRLSVTLPGEGAVGDGFSLARLRDATQCATFVVACSILQGSPTYDSRDMASMGLGVQGLADVFADLGWQYTDPPSRSLNKEIFEHMYFTALCTSSLIGLHTRKIFPGFKQSKYAGGWFHWHDWAGTDLSIPREIWSRLSERIVRDGLFNSQFIALMPTSGCAQVTGCSDAFYPFYANASTKVTNKEEALRPNRSFWRHVRLDDREALNLVGGRVSCLPEALRQRYLRFQTAFDYNQEDLIQMSRDRAPFVDQSQSHSLFLREEDAARASTLANLLVRSYELGLKTIMYYCRIEKAADLGVMECKASAALSVPREEQNERSPAEQMPPRPMEPAQVAGPVDIMSKGPGEGPGGWCVPGGLEVCYKYRQLFSEDDLLETDGFTERACESCQ
notes: Epstein-Barr virus ribonucleotide reductase large subunit BORF2, residues 1 to 826, codon-optimized gene; wild-type constructs match GenBank V01555.2; Dimer in the cryo-EM structure; The MBP tag was not detected in the maps; also called EBV RNR large subunit; wild-type BORF2; source: 293T, transfected; purified (amylose resin, SEC); not shown: MBP, N-terminal, kept
B2: MBP-BORF2 D26R (enzyme, Epstein-Barr virus (EBV), UniProt P03190 1-826, looked up)
chain: B1 chain with D26R
notes: Epstein-Barr virus BORF2, residues 1 to 826, codon-optimized gene; GenBank V01555.2; source: 293T, transfected; purified with amylose resin (SEC profiles); in lysate (co-IP); not shown: MBP, N-terminal, kept
B3: MBP-BORF2 R39E/D26R (enzyme, Epstein-Barr virus (EBV), UniProt P03190 1-826, looked up)
chain: B1 chain with D26R, R39E
notes: Epstein-Barr virus BORF2, residues 1 to 826, codon-optimized gene; GenBank V01555.2; also called D26R/R39E BORF2; double mutant R39E/D26R; source: 293T, transfected; purified with amylose resin (SEC profiles); in lysate (co-IP); not shown: MBP, N-terminal, kept
B4: A3Bctd (193-382)-mycHis (domain or fragment)
chain: not shown
notes: APOBEC3B (A3B) C-terminal catalytic domain (ctd), residues 193-382; wild-type constructs match GenBank NM_004900; also called A3Bctd-mycHis; A3B-mycHis; not shown: myc, C-terminal, kept; His, C-terminal, kept

Series [1] concerns the molecule itself. The series can be described thus: cryo-EM structure; MBP-BORF2 (after amylose resin) mixed with excess purified A3Bctd-mycHis, complex isolated by SEC in 20 mM tris-HCl (pH 8), 150 mM NaCl, 1 mM TCEP; dimeric classes, C2, focused refinement.
The series “A3Bctd (193-382)-mycHis” deals with B4. The series can be described thus: SEC; BORF2 and A3Bctd purified individually with affinity resins, mixed with excess A3Bctd, run on SEC; SDS-PAGE of the fractions of the major peak; 20 mM tris-HCl (pH 8), 150 mM NaCl. Particulars: both partners purified.
Series [2] concerns the molecule itself. The series can be described thus: SEC; MBP-BORF2 and mutant derivatives purified with amylose resin; approximately 150 ug of each on S200 Increase in 10 mM tris-HCl (pH 8), 150 mM NaCl; self-association (dimer to monomers). For orientation: SEC sorts molecules by how far they enter the pores of the column.
The target in the series “MBP-BORF2 (1 to 826)” is B1. The series can be described thus: BLI; Octet RED; A3-mycHis proteins loaded on Ni-NTA biosensors (12.5 ug/ml A3Bctd and A3A, 8 ug/ml A3G); MBP-BORF2 200 to 6.25 nM; 20 mM tris-HCl (pH 8), 300 mM NaCl; 30°C; association 1200 s, dissociation 1800 s; 1:2 binding model. The following applies: both partners purified.

A3Bctd (193-382)-mycHis, sequence (Q9UH17 193-382): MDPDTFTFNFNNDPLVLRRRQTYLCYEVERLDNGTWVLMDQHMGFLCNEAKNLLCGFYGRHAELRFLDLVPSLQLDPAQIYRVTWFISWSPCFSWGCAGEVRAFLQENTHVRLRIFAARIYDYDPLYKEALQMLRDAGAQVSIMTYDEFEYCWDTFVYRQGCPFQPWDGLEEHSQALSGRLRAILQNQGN

Take B1: the “stoichiometry N” value amounted to 2 in series [1] and 1 with A3Bctd (193-382)-mycHis.

For B2, the binding result in series [2] is “binds”.

As for B3, the binding result in series [2] is “binds”.

In turn, B4 gave a Kd with MBP-BORF2 (1 to 826) of about 1 nM.

As usually defined, the stoichiometry N is a count of units in the complex or per binding partner. Usually Kd stands for the free concentration of one partner at which half of the binding sites on the other are occupied at equilibrium, for simple one-to-one binding. Lower therefore signals higher affinity.
